B1: CLPTM1 (parent)
chain: MNLHVYISEHEHFTDFNATSALFW

Variants of: B1
Experiment: protein stability index of a GFP-peptide fusion (GPS, HEK-293T) (PSI 1-6); higher = more stable
Conditions: c terminus: a fixed tail appended
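Note: lentivirally expressed fusions sorted by FACS into six bins by GFP to DsRed ratio, PSI derived from sequencing read proportions per bin multiplied by bin number.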

Point of comparison: N17S, protein stability index 2.44. Against it:
- Y6D — lower, 2.1
- Y6L — higher, 3.45
- Y6F — higher, 2.84
- Y6R — higher, 3.35
- Y6A — lower, 2.15
- Y6N — lower, 2.22
- Y6H — higher, 2.59
- Y6E — higher, 2.93
- Y6K — higher, 3.26
- Y6P — lower, 1.49
- Y6Q — lower, 2.4
- Y6I — higher, 2.61
- Y6S — higher, 3.07
- Y6T — higher, 4.82
- Y6C — higher, 2.52
- E9G — higher, 4.46
- E9Q — higher, 2.96
- E9M — higher, 3.76
- E9H — higher, 4.25
- E9F — lower, 2.28
- E9P — lower, 1.5
- E9T — higher, 2.48
- E9N — higher, 3.59
- E9V — higher, 3.22
- E9L — lower, 1.96
- E9A — higher, 2.82
- E9Y — higher, 2.5
- E9K — higher, 2.52
- V5T — lower, 1.76
- V5Y — lower, 2.24
- V5I — higher, 3.89
- V5L — lower, 2.05
- V5A — lower, 2.42
- V5N — lower, 1.39
- V5M — higher, 3.04
- V5Q — lower, 1.48
- V5D — lower, 2.1
- V5K — lower, 2.01
- V5H — lower, 2.42
- V5E — lower, 1.34
- V5W — higher, 4.32
- V5S — higher, 3.51
- A18K — higher, 4.8
- A18F — higher, 4.2
- A18G — higher, 3.77
- A18Q — higher, 5.84
- A18H — higher, 3.29
- A18E — lower, 1.97
- A18M — higher, 4.1
- A18L — lower, 2.01
- S8P — higher, 3.32
- S8Y — higher, 2.98
- S8T — lower, 2.08
- S8W — higher, 3.59
- S8R — higher, 3.37
- S8I — lower, 1.69
- S8L — higher, 2.96
- S8D — higher, 3.18
- S8H — higher, 3.35
- I7V — higher, 3.33
- I7A — higher, 2.6
- I7C — lower, 2
- I7W — higher, 2.65
- I7F — higher, 2.58
- I7H — lower, 1.79
- I7K — higher, 2.96
- I7R — higher, 3.14
- I7L — higher, 2.45
- I7G — higher, 2.92
- I7E — higher, 2.48
- I7Y — higher, 4.01
- I7M — higher, 3.09
- I7D — higher, 2.53
- I7N — higher, 3.55
- I7S — higher, 2.45
- E11I — lower, 2.42
- E11C — higher, 3.77
- E11V — higher, 4.02
- E11F — higher, 3.56
- E11T — higher, 2.47
- E11A — lower, 1.98
- E11Q — higher, 2.87
- E11D — lower, 2.39
- E11M — higher, 3.46
- E11Y — higher, 3.67
- T14H — higher, 4.34
- T14C — higher, 3.04
- T14Q — higher, 2.62
- T14A — higher, 3.39
- T14I — lower, 2.23
- T14V — lower, 1.81
- T14M — higher, 4.02
- T14S — higher, 3.26
- T14P — higher, 4.65
- T14K — higher, 3.17
- T14E — higher, 3.86
- T14Y — lower, 1.62
- F13V — higher, 2.63
- F13T — lower, 1.95
- F13L — higher, 4.51
- F13K — higher, 4.65
- F13S — lower, 2.4
- F13E — higher, 3.52
- F13W — higher, 4.9
- F13P — higher, 2.63
- F13R — higher, 2.5
- F13N — higher, 3.8
- F13G — lower, 2.42
- F13C — higher, 2.51
- F13A — higher, 3.39
- F13H — higher, 2.67
- F13Q — lower, 2.2
- H12Q — lower, 1.98
- H12F — higher, 3.38
- H12L — lower, 1.41
- H12T — lower, 2.1
- H12Y — higher, 2.77
- H12M — lower, 2.39
- H12P — higher, 2.64
- H12W — higher, 3.67
- H12C — higher, 2.72
- H12S — lower, 1.83
- H10M — higher, 2.73
- H10T — higher, 3.76
- H10C — higher, 2.77
- H10I — lower, 1.28
- H10V — lower, 1.99
- H10P — higher, 2.64
- H10D — lower, 2.41
- H10S — higher, 2.59
- H10G — higher, 2.58
- H10E — higher, 2.77
- N17H — lower, 2.13
- N17R — lower, 2.01
- N17A — higher, 2.59
- N17V — higher, 2.75
- N17F — higher, 2.72
- N17K — higher, 3.02
- N17I — higher, 3.01
- N17C — higher, 2.72
- N17G — lower, 2.38
- N17E — higher, 3.66
- N17P — higher, 3.96
- N17T — higher, 3.19
- D15M — higher, 3
- D15A — higher, 3.71
- D15W — higher, 3.89
- D15T — higher, 3.63
- D15K — higher, 2.71
- D15C — lower, 2.43
- D15E — higher, 2.73
- D15Q — lower, 2.3
- D15Y — higher, 2.52
- D15S — higher, 4.3
- F16T — lower, 1.87
- F16K — higher, 2.96
- F16H — higher, 3.52
- F16G — higher, 2.76
- F16E — higher, 2.87
- F16W — higher, 2.71
- F16N — higher, 2.56
- F16D — lower, 1.79
- F16Y — lower, 2.26
- F16R — lower, 1.62
- F16S — lower, 2.19
- F16I — lower, 1.71

From the supplement of paper PMC10567573
